The record followed here is paper PMC8041789.

The target in test [1] is von Willebrand factor-binding protein (recombinant vWbp) (S. aureus). Nature of the test: AFM single-molecule force spectroscopy; vWF-modified tips probing vWbp-modified gold supports (NHS/EDC coupling); PBS; 10 µm x 10 µm areas.
Test [2] concerns the target clumping factor A (ClfA wild type) on S. aureus ClfA+ cells (S. aureus) (UniProt Q53653). Nature of the test: AFM single-molecule force spectroscopy; vWbp-modified tips probing ClfA+ cells; minimum contact time (~100 ms); PBS.
The target is the same in test [3]. The experiment in a line: AFM single-molecule force spectroscopy; vWbp-modified tips probing ClfA+ cells; contact time 500 ms before retraction; PBS.

For the substance “von Willebrand factor (human plasma vWF) (from UniProt P04275 764-2813) (natural protein)”, in test [1], the binding frequency came to 24% and the rupture force came to 136 pN.

“von Willebrand factor-binding protein (recombinant vWbp) (natural protein)” gave a binding frequency in test [2] of 3%. In test [3], this substance displayed a binding frequency of 11% and a rupture force of 446 pN.
